Reference: patent US20260035459A1 (AVA LIFESCIENCE, published 2026)
Residue numbers refer to the chain shown, from its start.

B1: humanized anti-IGLV3-21^R110 antibody HC6-LC6 (antibody, human IgG1, V domains shown)
VH: QVQLQESGPGLVKPSETLSLTCTVSGFSLTSYGIHWIRQSPGRGLEWIGVIWRGGGTDSNAAFMSRVTISVDTSKSQVSLKLGSVTAADTAIYYCARSRYDEEESMNYWGQGTSVTVSS
VL: EIVLTQSPSSLSASVGDSVTITCRASGNIHSYLAWYQQKPGKAPKLLIYNAKTLADGVPSRFSGSGSGTQYTLTISSLQPEDFATYYCQHFWNTPPTFGAGTKLELK
notes: VH fused to a human IgG1 constant domain and VL to a human Ig kappa constant domain; Expressed in CHO cells
B2: humanized anti-IGLV3-21^R110 antibody HC6-LC8 (antibody, human IgG1, V domains shown)
VH: B1 VH
VL: EIVLTQSPATLSLSPGERATLSCRASGNIHSYLAWYQQKPGQAPRLLIYNAKTLADGIPARFSGSGSGTDYTLTISSLEPEDFASYYCQHFWNTPPTFGAGTKLELK
notes: Expressed in CHO cells
B3: humanized anti-IGLV3-21^R110 antibody HC6-LC9 (antibody, human IgG1, V domains shown)
VH: B1 VH
VL: B2 VL with A9G, A60D, S77R, S85V
notes: Expressed in CHO cells
B4: humanized anti-IGLV3-21^R110 antibody HC7-LC7 (antibody, human IgG1, V domains shown)
VH: B1 VH with V67I, V71R, S76T
VL: B1 VL with E1Q, V3Q, S10F, K45Q, Q70E
notes: Expressed in CHO cells
B5: humanized anti-IGLV3-21^R110 antibody HC7-LC8 (antibody, human IgG1, V domains shown)
VH: B1 VH with V67I, V71R, S76T
VL: B2 VL
notes: Expressed in CHO cells
B6: humanized anti-IGLV3-21^R110 antibody HC6-LC7 (antibody, human IgG1, V domains shown)
VH: B1 VH
VL: B1 VL with E1Q, V3Q, S10F, K45Q, Q70E
notes: Expressed in CHO cells
B7: humanized anti-IGLV3-21^R110 antibody HC7-LC9 (antibody, human IgG1, V domains shown)
VH: B1 VH with V67I, V71R, S76T
VL: B2 VL with A9G, A60D, S77R, S85V
notes: Expressed in CHO cells
B8: humanized anti-IGLV3-21^R110 antibody HC7-LC6 (antibody, human IgG1, V domains shown)
VH: B1 VH with V67I, V71R, S76T
VL: B1 VL
notes: Expressed in CHO cells

Target: T1, soluble recombinant IGLV3-21^R110-harboring B-cell receptor, monomeric human IgM (170.5 kDa) (human)
T1 construct: Made in 293-HEK cells by transient expression and used as the analyte in BLI; also called soluble IGLV3-21^R110 B-cell receptor; soluble form of the IGLV3-21^R110 BCR
T1 sequence (heavy, as listed by the source limits assumed, chain 1 of 2): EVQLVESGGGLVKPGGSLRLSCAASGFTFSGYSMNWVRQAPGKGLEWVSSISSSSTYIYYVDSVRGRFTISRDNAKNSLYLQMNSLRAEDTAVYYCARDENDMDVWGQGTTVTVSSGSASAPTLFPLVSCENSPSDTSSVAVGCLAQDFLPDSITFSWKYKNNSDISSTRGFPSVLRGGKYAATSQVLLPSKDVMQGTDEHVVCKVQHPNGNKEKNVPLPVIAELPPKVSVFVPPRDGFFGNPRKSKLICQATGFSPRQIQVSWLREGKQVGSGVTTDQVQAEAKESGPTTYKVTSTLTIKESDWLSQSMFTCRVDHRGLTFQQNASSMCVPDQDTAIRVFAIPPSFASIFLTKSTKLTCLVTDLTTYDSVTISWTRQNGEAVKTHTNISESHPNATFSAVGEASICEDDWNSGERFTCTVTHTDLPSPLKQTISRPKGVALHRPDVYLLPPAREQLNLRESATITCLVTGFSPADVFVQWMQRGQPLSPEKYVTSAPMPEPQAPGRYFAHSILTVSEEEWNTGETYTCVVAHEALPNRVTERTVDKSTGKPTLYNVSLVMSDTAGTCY
T1 sequence (light, as listed by the source limits assumed, chain 2 of 2): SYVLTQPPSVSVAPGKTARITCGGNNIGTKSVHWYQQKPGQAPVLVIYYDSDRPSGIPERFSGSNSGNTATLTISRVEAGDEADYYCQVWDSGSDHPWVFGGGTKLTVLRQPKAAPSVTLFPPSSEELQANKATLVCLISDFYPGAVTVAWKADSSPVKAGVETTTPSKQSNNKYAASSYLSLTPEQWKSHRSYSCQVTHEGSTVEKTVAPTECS
Experiment: BLI (Fortebio Octet), antibody captured by anti-human IgG Fc, soluble BCR (monomeric IgM) as analyte, 1:1 model
From the text: In brief, to define the binding affinities of the antibodies to the IGLV3-21^R110-harboring B-cell receptor, a soluble recombinant version of the BCR (170.5 kDa; sequence according to SEQ ID NO: 52 for HC and 53 for LC) was produced in 293-HEK cell line as monomeric human IgM by transient expression using a protocol described in section 1.1 of this Example, and binding to immobilized anti-IGLV3-21^R110 antibodies was monitored by Bio-Layer Interferometry (BLI) on a Fortebio Octet instrument (Satorius). Kinetic assays were performed by first immobilizing the humanized anti IGLV3-21R110 antibodies onto biosensors through an indirect capturing reagent, anti-human lgG Fc antibody. Anti IGLV3-21^R110 antibodies were loaded at a concentration of 0.01875 μg/ml to generate an anti IGLV3-21^R110 antibody capture level of between 0.30 and 0.34 nm. A 9 nM BCR-fragment solution in running buffer (PBS, 0.02% Tween20, 0.1% BSA, 0.05% sodium acide) was prepared and serial diluted 1:3 to obtain 7 concentrations from 9 to 0.012 nM (9 nM, 3 nM, 1 nM, 0.333 nM, 0.111 nM, 0.037 nM, and 0.012 nM). The anti IGLV3-21 R110 antibody capture biosensors were then submerged in wells containing the different concentrations of the soluble BCR-fragment for 900 seconds (association stage) followed by a dissociation step of 1200 seconds in running buffer. Steps were performed at a constant shake speed of 1000 rpm. All reagents were used as described by the manufacturer. Sensorgrams were generated after double reference correction (buffer and blank sensors) to compensate for both the natural dissociation of the capture anti IGLV3-21^R110 antibody and also non-specific binding of the soluble BCR-fragment to the sensor surface. […] (KD) were calculated based on the ratio of association (ka) and dissociation rate (kd) constants, obtained by fitting sensorgrams with a first order 1:1 binding model using the Fortebio Data Analysis software (Satorius).

| Kd [nM] | Binder |
| --- | --- |
| 0.211 | B1 |
| 0.277 | B2 |
| 0.291 | B3 |
| 0.269 | B4 |
| 0.249 | B5 |
| 0.347 | B6 |
| 0.313 | B7 |
| 0.175 | B8 |
